Measurements published in the supplement of paper PMC9112550, “Optimization of the antimicrobial peptide Bac7 by deep mutational scanning” (BMC Biology, 2022).

Each sequence was assayed on Escherichia coli TOP10 (assay: shrunken log2 fold change of peptide-encoding DNA abundance (4.5 h post-induction vs induction); higher = less antimicrobial activity (less host growth inhibition)). Details: time post-induction: 4.5 h; library: site-saturation at positions 5, 18, 19, 20.
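Further: peptides expressed intracellularly from a pBAD plasmid library in pooled LB shake-flask culture, induced with 0.3% L-arabinose, DNA abundance read by NGS, three biological replicates, DESeq2 with apeglm shrinkage.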

Sequence	shrunken log2 fold change
RRIRSRPPRLPRPRPRPWLQPRP	-0.0695
RRIRKRPPRLPRPRPRPHNKPRP	-0.0934
RRIRMRPPRLPRPRPRPCPCPRP	0.495
RRIRERPPRLPRPRPRPGHPPRP	0.143
RRIRKRPPRLPRPRPRPPITPRP	0.0882
RRIRWRPPRLPRPRPRPKFVPRP	0.295
RRIRNRPPRLPRPRPRPFKNPRP	0.0633
RRIRRRPPRLPRPRPRPVRFPRP	0.632
RRIRVRPPRLPRPRPRPGLPPRP	0.113
RRIRMRPPRLPRPRPRPAEGPRP	0.265
RRIRARPPRLPRPRPRPANHPRP	-0.129
RRIRWRPPRLPRPRPRPNYCPRP	-0.113
RRIRVRPPRLPRPRPRPVKMPRP	0.0133
RRIRFRPPRLPRPRPRPQHFPRP	0.205
RRIRQRPPRLPRPRPRPWMDPRP	-0.118
RRIRFRPPRLPRPRPRPKYKPRP	-0.63
RRIRIRPPRLPRPRPRPQEQPRP	-0.0376
RRIRMRPPRLPRPRPRPRVFPRP	0.947
RRIRERPPRLPRPRPRPLHAPRP	-0.0579
RRIRKRPPRLPRPRPRPQWHPRP	0.104

Sequence	shrunken log2 fold change
RRIRKRPPRLPRPRPRPIETPRP	0.00938
RRIRWRPPRLPRPRPRPSGFPRP	0.121
RRIRMRPPRLPRPRPRPTRFPRP	0.261
RRIRIRPPRLPRPRPRPKRAPRP	0.283
RRIRERPPRLPRPRPRPWNMPRP	-0.0894
RRIRGRPPRLPRPRPRPSYEPRP	0.0732
RRIRCRPPRLPRPRPRPKMEPRP	-0.204
RRIRSRPPRLPRPRPRPFLEPRP	-0.248
RRIRKRPPRLPRPRPRPQFWPRP	0.248
RRIRPRPPRLPRPRPRPVASPRP	0.00755
RRIRNRPPRLPRPRPRPFVRPRP	-0.0373
RRIRPRPPRLPRPRPRPLDLPRP	-0.102
RRIRGRPPRLPRPRPRPRRQPRP	0.85
RRIRWRPPRLPRPRPRPDNIPRP	-0.12
RRIRHRPPRLPRPRPRPPQAPRP	0.236
RRIRERPPRLPRPRPRPAWRPRP	0.532
RRIRVRPPRLPRPRPRPAQFPRP	0.341
RRIRARPPRLPRPRPRPLGSPRP	0.471
RRIRTRPPRLPRPRPRPKHDPRP	-0.099
RRIRLRPPRLPRPRPRPYTPPRP	-0.484

Sequence	shrunken log2 fold change
RRIRRRPPRLPRPRPRPANLPRP	0.0328
RRIRNRPPRLPRPRPRPQPWPRP	-0.00313
RRIRFRPPRLPRPRPRPPGNPRP	0.0667
RRIRFRPPRLPRPRPRPMESPRP	0.0556
RRIRCRPPRLPRPRPRPGFHPRP	-0.435
RRIRLRPPRLPRPRPRPVSTPRP	0.255
RRIRIRPPRLPRPRPRPVKPPRP	0.0254
RRIRWRPPRLPRPRPRPLNRPRP	-0.274
RRIRTRPPRLPRPRPRPDPSPRP	-0.0208
RRIRQRPPRLPRPRPRPQALPRP	0.0286
RRIRYRPPRLPRPRPRPHCEPRP	-0.00822
RRIRHRPPRLPRPRPRPSVRPRP	-0.158
RRIRCRPPRLPRPRPRPPHMPRP	1.56
RRIRKRPPRLPRPRPRPGYAPRP	0.223
RRIRIRPPRLPRPRPRPILMPRP	-0.23
RRIRCRPPRLPRPRPRPFSEPRP	-0.929
RRIRYRPPRLPRPRPRPPVFPRP	0.0494
RRIRIRPPRLPRPRPRPTQVPRP	0.00035
RRIRMRPPRLPRPRPRPDKHPRP	0.253
RRIRMRPPRLPRPRPRPAMSPRP	0.177
